Measured values: patent US20150105316A1 (TREVENA, published 2015)
Where no end group is shown, it is not given here. [ ]: non-standard residue; d: D form. Tle = CC(C)(C)[C@H](N)C(=O)O; Ac6c = NC1(C(=O)O)CCCCC1; cyHex = not defined here; cyPen = not defined here; Ac5c = NC1(C(=O)O)CCCC1; Sar = CNCC(=O)O

T1: human angiotensin 2 type 1 receptor (human, UniProt P30556 1-359)
T1 sequence (looked up): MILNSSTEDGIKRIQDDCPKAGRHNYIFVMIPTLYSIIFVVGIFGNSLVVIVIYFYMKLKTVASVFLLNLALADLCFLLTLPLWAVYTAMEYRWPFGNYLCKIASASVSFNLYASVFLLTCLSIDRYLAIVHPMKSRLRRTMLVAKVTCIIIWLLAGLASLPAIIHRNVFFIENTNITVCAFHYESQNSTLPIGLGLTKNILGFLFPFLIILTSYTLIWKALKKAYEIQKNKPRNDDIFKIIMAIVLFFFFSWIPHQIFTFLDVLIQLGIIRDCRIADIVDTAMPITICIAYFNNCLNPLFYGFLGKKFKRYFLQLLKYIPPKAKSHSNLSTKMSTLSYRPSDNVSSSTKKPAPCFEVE

T2: rat angiotensin 2 type 1 receptor (rat, UniProt P25095 1-359)
T2 sequence (looked up): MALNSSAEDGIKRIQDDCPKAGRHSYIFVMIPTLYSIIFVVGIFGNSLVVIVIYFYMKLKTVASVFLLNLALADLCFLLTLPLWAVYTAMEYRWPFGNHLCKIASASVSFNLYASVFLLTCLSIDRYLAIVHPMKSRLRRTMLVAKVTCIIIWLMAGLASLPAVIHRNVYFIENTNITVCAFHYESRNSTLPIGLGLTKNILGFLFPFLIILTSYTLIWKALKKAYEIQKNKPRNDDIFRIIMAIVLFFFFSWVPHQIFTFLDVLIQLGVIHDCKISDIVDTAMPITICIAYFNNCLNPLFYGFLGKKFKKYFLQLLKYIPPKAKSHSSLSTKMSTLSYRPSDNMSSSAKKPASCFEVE

B1: SEQ ID NO: 18 (Sar-Arg-Val-Tyr-cyPen-His-Pro-Ile) (peptide)
peptide: [Sar]RVY[Ac5c]HPI
B2: SEQ ID NO: 19 (Sar-Arg-Val-Tyr-cyPen-His-Pro-Leu) (peptide)
peptide: [Sar]RVY[Ac5c]HPL
B3: SEQ ID NO: 20 (Sar-Arg-Val-Tyr-cyPen-His-Pro-Val) (peptide)
peptide: [Sar]RVY[Ac5c]HPV
B4: SEQ ID NO: 21 (Sar-Arg-Val-Tyr-cyPen-His-Pro-Thr) (peptide)
peptide: [Sar]RVY[Ac5c]HPT
B5: SEQ ID NO: 22 (Sar-Arg-Val-Tyr-cyPen-His-Pro-Ser) (peptide)
peptide: [Sar]RVY[Ac5c]HPS
B6: SEQ ID NO: 2 (Sar-Arg-Val-Tyr-cyHex-His-Pro-Ala) (peptide)
peptide: [Sar]RVY[cyHex]HPA
modifications: reading uncertain; also: printed as Sar-Arg-Val-Tyr-cyHex-His-Pro-Ala
B7: SEQ ID NO: 23 (Sar-Arg-Val-Tyr-cyPen-His-Pro-Met) (peptide)
peptide: [Sar]RVY[Ac5c]HPM
B8: SEQ ID NO: 24 (Sar-Arg-Val-Tyr-cyPen-His-Pro-Phe) (peptide)
peptide: [Sar]RVY[Ac5c]HPF
B9: SEQ ID NO: 38 (Sar-Arg-Val-Tyr-cyHex-His-Pro-Gln) (peptide)
peptide: [Sar]RVY[Ac6c]HPQ
B10: SEQ ID NO: 39 (Sar-Arg-Val-Tyr-cyHex-His-Pro-Pro) (peptide)
peptide: [Sar]RVY[Ac6c]HPP
B11: SEQ ID NO: 54 (Sar-Arg-Val-Tyr-cyHex-His-Pro-Trp) (peptide)
peptide: [Sar]RVY[Ac6c]HPW
B12: SEQ ID NO: 3 (Sar-Arg-Val-Tyr-cyPen-His-Pro-Ala) (peptide)
peptide: [Sar]RVY[cyPen]HPA
modifications: reading uncertain; also: printed as Sar-Arg-Val-Tyr-cyPen-His-Pro-Ala
B13: SEQ ID NO: 55 (Sar-Arg-Val-Tyr-cyHex-His-Pro-Tyr) (peptide)
peptide: [Sar]RVY[Ac6c]HPY
B14: SEQ ID NO: 56 (Sar-Arg-Val-Tyr-cyHex-His-Pro-AA02) (peptide)
peptide: [Sar]RVY[Ac6c]HP[Tle]
B15: SEQ ID NO: 60 (Sar-Arg-Val-Tyr-Pro-His-Pro-D-Ala) (peptide)
peptide: [Sar]RVYPHP[dA]
B16: SEQ ID NO: 4 (Sar-Arg-Val-Tyr-Pro-His-Pro-Ile) (peptide)
peptide: [Sar]RVYPHPI
B17: SEQ ID NO: 5 (Sar-Arg-Val-Tyr-Pro-His-Pro-Leu) (peptide)
peptide: [Sar]RVYPHPL
B18: SEQ ID NO: 6 (Sar-Arg-Val-Tyr-Pro-His-Pro-Val) (peptide)
peptide: [Sar]RVYPHPV

Target: T1, human angiotensin 2 type 1 receptor
Experiment: cell-based or functional assay

| Binder | beta-arrestin2 assay EC50 [nM] | beta-arrestin2 assay Span | beta-arrestin2 assay pEC50 |
| --- | --- | --- | --- |
| B1 | > 3.2 | < 101 | < 8.5 |
| B2 | > 3.2 | < 101 | < 8.5 |
| B3 | > 3.2 | < 101 | < 8.5 |
| B4 | > 3.2 | < 101 | < 8.5 |
| B5 | > 3.2 | < 101 | < 8.5 |
| B6 |  | < 101 |  |
| B7 | > 3.2 | < 101 | < 8.5 |
| B8 | > 3.2 | > 101 | < 8.5 |
| B9 | > 3.2 | < 101 | < 8.5 |
| B10 | > 3.2 | < 101 | < 8.5 |
| B11 | > 3.2 | < 101 | < 8.5 |
| B12 |  | < 101 |  |
| B13 | > 3.2 | < 101 | < 8.5 |
| B14 | > 3.2 | < 101 | < 8.5 |
| B15 | > 3.2 | < 101 | < 8.5 |
| B16 | > 3.2 | < 101 | < 8.5 |
| B17 | > 3.2 | < 101 | < 8.5 |
| B18 | > 3.2 | < 101 | < 8.5 |

Target: T2, rat angiotensin 2 type 1 receptor
Experiment: cell-based or functional assay

| Binder | beta-arrestin2 assay EC50 [nM] | beta-arrestin2 assay Span | beta-arrestin2 assay pEC50 |
| --- | --- | --- | --- |
| B1 | > 3.2 | < 105 | < 8.5 |
| B2 | > 3.2 | < 105 | < 8.5 |
| B3 | > 3.2 | < 105 | < 8.5 |
| B4 | > 3.2 | < 105 | < 8.5 |
| B5 | > 3.2 | < 105 | < 8.5 |
| B6 |  | < 105 |  |
| B7 | > 3.2 | < 105 | < 8.5 |
| B8 | > 3.2 | < 105 | < 8.5 |
| B9 | > 3.2 | < 105 | < 8.5 |
| B10 | > 3.2 | < 105 | < 8.5 |
| B11 | > 3.2 | < 105 | < 8.5 |
| B12 |  | < 105 |  |
| B13 | > 3.2 | < 105 | < 8.5 |
| B14 | > 3.2 | < 105 | < 8.5 |
| B15 | > 3.2 | < 105 | < 8.5 |
| B16 | > 3.2 | < 105 | < 8.5 |
| B17 | > 3.2 | < 105 | < 8.5 |
| B18 | > 3.2 | < 105 | < 8.5 |

Target: T1, human angiotensin 2 type 1 receptor
Experiment: cell-based or functional assay
Remark: another data set of the same source

| Binder | IP1 G-protein assay EC50 [nM] | IP1 G-protein assay Span | IP1 G-protein assay pEC50 |
| --- | --- | --- | --- |
| B1 | > 1.3 | < 103 | < 9.2 |
| B2 | > 1.3 | < 103 | < 9.2 |
| B3 | > 1.3 | < 103 | < 9.2 |
| B4 | > 1.3 |  | > 9.2 |
| B5 | > 1.3 |  | > 9.2 |
| B6 |  | < 103 | < 9.2 |
| B7 | > 1.3 | < 103 | < 9.2 |
| B8 | < 1.3 | > 103 | < 9.2 |
| B9 | > 1.3 | < 103 | < 9.2 |
| B10 | > 1.3 | < 103 | < 9.2 |
| B11 | > 1.3 | < 103 | < 9.2 |
| B12 | > 10000 |  | > 9.2 |
| B13 | > 1.3 | < 103 | < 9.2 |
| B14 | > 1.3 | < 103 | < 9.2 |
| B15 | > 1.3 | < 103 | < 9.2 |
| B16 | 2.5 | < 103 | < 9.2 |
| B17 | 3.2 | < 103 | < 9.2 |
| B18 | 63.1 | < 103 | < 9.2 |

Target: T2, rat angiotensin 2 type 1 receptor
Experiment: cell-based or functional assay
Remark: another data set of the same source

| Binder | IP1 G-protein assay EC50 [nM] | IP1 G-protein assay Span | IP1 G-protein assay pEC50 |
| --- | --- | --- | --- |
| B1 | > 0.6 | < 104 | < 9.2 |
| B2 | > 0.6 |  | > 9.2 |
| B3 | > 0.6 | < 104 | < 9.2 |
| B4 | > 0.6 | < 104 | < 9.2 |
| B5 | > 0.6 | < 104 | < 9.2 |
| B6 | > 0.6 |  | > 9.2 |
| B7 | > 0.6 | < 104 | < 9.2 |
| B8 | > 0.6 | < 104 | < 9.2 |
| B9 | > 0.6 | < 104 | < 9.2 |
| B10 | > 0.6 | < 104 | < 9.2 |
| B11 | > 0.6 | < 104 | < 9.2 |
| B12 | > 0.6 |  | > 9.2 |
| B13 | > 0.6 | < 104 | < 9.2 |
| B14 | > 0.6 | < 104 | < 9.2 |
| B15 | > 0.6 | < 104 | < 9.2 |
| B16 | > 0.6 |  | > 9.2 |
| B17 | > 0.6 | < 104 | < 9.2 |
| B18 | > 0.6 | < 104 | < 9.2 |
